# According to patent US20180147273A1 (Harvard, published 2018):
# T1: VipB protein (Vibrio cholerae, VCA0108) (Vibrio cholerae)
# T1 construct: GenBank NP_232509; The experiments used strain 2740-80; also called 55 kDa band; Band A
# T1 chain: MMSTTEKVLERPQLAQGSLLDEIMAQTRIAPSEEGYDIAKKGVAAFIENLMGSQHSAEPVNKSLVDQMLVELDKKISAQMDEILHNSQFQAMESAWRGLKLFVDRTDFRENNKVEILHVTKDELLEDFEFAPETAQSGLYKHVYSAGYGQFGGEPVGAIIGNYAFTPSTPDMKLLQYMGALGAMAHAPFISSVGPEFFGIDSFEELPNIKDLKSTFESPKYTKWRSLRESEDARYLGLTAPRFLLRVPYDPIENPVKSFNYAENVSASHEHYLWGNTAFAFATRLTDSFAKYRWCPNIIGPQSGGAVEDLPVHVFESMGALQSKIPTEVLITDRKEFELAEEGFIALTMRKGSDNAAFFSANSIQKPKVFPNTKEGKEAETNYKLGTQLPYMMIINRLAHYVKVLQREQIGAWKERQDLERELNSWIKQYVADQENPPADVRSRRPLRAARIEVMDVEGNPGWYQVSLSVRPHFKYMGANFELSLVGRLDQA
# Molecular target: T1, VipB protein (Vibrio cholerae, VCA0108)
# Assay: purified sheath separated by SDS-PAGE; bands identified by MS
binder,measurement,value
"VipA protein (Vibrio cholerae, VCA0107) (other, GenBank NP_232508; The experiments used strain 2740-80; also called WT VipA; 20 kDa band) MSKEGSVAPKERINIKYIPATGDAQAEVELPLKTLVVGDFKGHAEQTPLEERATVTVDKNNFEAVMRESELKITATVKNKLTDDENAELPVELNFKSLADFAPDAVASQVPELKKLIELREALVALKGPLGNIPAFRERLQSLLNSEESREKLLAELNLLSGQEEPQA",binding result,binds
